According to PMC8801479, “The anti-Müllerian hormone prodomain is displaced from the hormone/prodomain complex upon bivalent binding to the hormone receptor” (The Journal of Biological Chemistry, 2021):
Blank lines part the entries; values can stand above or below the binder they belong to.

How the values were obtained:
[1] = molecular target: T1, BMP-7 prodomain biotinylated through amines (human, UniProt P18075 30-292, biotin through amines (EZ-Link NHS-PEG4-Biotin)); assay: ELISA; BMP-7 complexes with biotinylated prodomain or biotinylated GF captured on anti-BMP-7 GF mAb; bound prodomain or GF detected with SA-HRP (biotinylated prodomain preparation also added as preformed complex with SA-HRP); 0.1% Tween-20 in all incubations; Kd from modeling of the concentration dependence; conditions: both partners purified
T1 construct: prodomain of human bone morphogenetic protein 7 (BMP-7); 90% pure, with about 10% unprocessed BMP-7; also called biotinylated prodomain; source: CHO cells; soluble BMP-7 biotinylated, prodomain eluted from Zn-chelating Sepharose with 50 mM imidazole

[2] = molecular target: T2, AMHR2-Fc/Fc, heterodimer of one AMHR2-Fc chain (extracellular domain of human AMHR2 fused to human IgG1 Fc) … (human, UniProt Q16671 18-149; P01857 104-330 = IgG part); assay: ELISA; AMHR2-Fc/Fc (0.75 ug/ml) captured on goat antihuman Fc Ab coated on the plate; c-AMH or GF serially diluted, 2 to 4 h; bound AMH detected with biotinylated mAb-C1 (GF) or mAb-N1 (prodomain) and SA-HRP; data fit to the quadratic equation for a reversible association reaction; conditions: both partners purified
T2 construct: extracellular domain of human anti-Müllerian hormone receptor type-2 (AMHR2); Fc portion of human IgG1 (Ig gamma-1 chain constant region), the Fc-only chain; Functionally monovalent for AMHR2; also called soluble receptor; soluble AMHR2; source: human embryonic kidney 293E cells, purified from conditioned medium (Protein A Sepharose, size-exclusion chromatography); copies: 1 + 1

T1 sequence (P18075 30-292): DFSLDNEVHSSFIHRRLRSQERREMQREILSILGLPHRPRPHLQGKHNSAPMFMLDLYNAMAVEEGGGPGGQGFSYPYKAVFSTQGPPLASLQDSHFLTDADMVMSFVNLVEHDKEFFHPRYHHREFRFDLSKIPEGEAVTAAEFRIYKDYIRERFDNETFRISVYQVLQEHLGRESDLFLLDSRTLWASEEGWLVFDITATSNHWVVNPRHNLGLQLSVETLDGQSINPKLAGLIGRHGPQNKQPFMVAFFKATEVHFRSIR

Kd [1]: 100 to 200 pM
B1: mature BMP-7 growth factor (unmodified mature domain) (ligand, human, UniProt P18075 293-431, looked up)
chain: STGSKQRSQNRSKTPKNQEALRMANVAENSSSDQRQACKKHELYVSFRDLGWQDWIIAPEGYAAYYCEGECAFPLNSYMNATNHAIVQTLVHFINPETVPKPCCAPTQLNAISVLYFDDSSNVILKKYRNMVVRACGCH
notes: mature growth factor (GF) domain of human BMP-7; also called BMP-7 GF; source: CHO cells; mature BMP-7 eluted from Zn-chelating Sepharose with 6 M urea

Kd [2]: 30 pM
B2: anti-Müllerian hormone growth factor (AMH GF), the mature C-terminal domain (ligand, human, UniProt P03971 452-560, looked up)
chain: SAGATAADGPCALRELSVDLRAERSVLIPETYQANNCQGVCGWPQSDRNPRYGNHVVLLLKMQVRGAALARPPCCVPTAYAGKLLISLSEERISAHHVPNMVATECGCR
notes: C-terminal growth factor (GF) domain of human AMH, the mature product of cleavage at the monobasic site (R451); Disulfide-linked homodimer; also called mature GF; C-terminal GF; source: in the prodomain/GF rows it is the GF part of c-AMH (CHO cells, plasmin cleaved)
